This is an account of results in US5939560A, “Inhibitors of DP-mediated processes, compositions and therapeutic methods thereof” (Ferring B.V., priority 1993, dated 1999).

The term Km denotes the concentration of substrate that gives half-maximal velocity.

Substrate in this series: C[C@H](N)C(=O)N1CCC[C@H]1C(=O)Nc1ccc2c(C(F)(F)F)cc(=O)oc2c1
The experiment in a line: purified protein, by the assay type. Conditions: other: substrate of DP-IV assay.

Protocol: All compounds were tested in vitro against pure human DP-IV (purchased from M & E, Copenhagen, Denmark). […] Ki values were determined using Dixon plots.

B1: pure human DP-IV (Homo sapiens) (protein)
chain: MKTPWKVLLGLLGAAALVTIITVPVVLLNKGTDDATADSRKTYTLTDYLKNTYRLKLYSLRWISDHEYLYKQENNILVFNAEYGNSSVFLENSTFDEFGHSINDYSISPDGQFILLEYNYVKQWRHSYTASYDIYDLNKRQLITEERIPNNTQWVTWSPVGHKLAYVWNNDIYVKIEPNLPSYRITWTGKEDIIYNGITDWVYEEEVFSAYSALWWSPNGTFLAYAQFNDTEVPLIEYSFYSDESLQYPKTVRVPYPKAGAVNPTVKFFVVNTDSLSSVTNATSIQITAPASMLIGDHYLCDVTWATQERISLQWLRRIQNYSVMDICDYDESSGRWNCLVARQHIEMSTTGWVGRFRPSEPHFTLDGNSFYKIISNEEGYRHICYFQIDKKDCTFITKGTWEVIGIEALTSDYLYYISNEYKGMPGGRNLYKIQLSDYTKVTCLSCELNPERCQYYSVSFSKEAKYYQLRCSGPGLPLYTLHSSVNDKGLRVLEDNSALDKMLQNVQMPSKKLDFIILNETKFWYQMILPPHFDKSKKYPLLLDVYAGPCSQKADTVFRLNWATYLASTENIIVASFDGRGSGYQGDKIMHAINRRLGTFEVEDQIEAARQFSKMGFVDNKRIAIWGWSYGGYVTSMVLGSGSGVFKCGIAVAPVSRWEYYDSVYTERYMGLPTPEDNLDHYRNSTVMSRAENFKQVEYLLIHGTADDNVHFQQSAQISKALVDVGVDFQAMWYTDEDHGIASSTAHQHIYTHMSHFIKQCFSLP
As to B1, the Km stood at 0.8 µM.
